We go through one substance from US20230212304A1.

Test [1] deals with cynomolgus monkey CTLA4-his protein (Acro biosystems, Cat#CT4-C5227) (cynomolgus monkey) (UniProt G7PL88). The experiment in a line: SPR, Biacore T200; benchmark on Protein G chip, CTLA4-his as analyte. On the technique in general: SPR reads the build-up and loss of mass on a sensor chip optically.
Test [2] shares this target. The test can be described thus: SPR, Biacore; antibody captured on anti-human IgG CM5 chip, CTLA4-his as analyte.

Sequence of cynomolgus monkey CTLA4-his protein (Acro biosystems, Cat#CT4-C5227) (cynomolgus monkey) (G7PL88 entry or part of it): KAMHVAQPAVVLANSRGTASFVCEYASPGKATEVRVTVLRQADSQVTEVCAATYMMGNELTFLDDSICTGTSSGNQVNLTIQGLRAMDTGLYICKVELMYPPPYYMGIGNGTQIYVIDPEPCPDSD

Broadly, the Kd is the free concentration of one partner at which half of the binding sites on the other are occupied at equilibrium, for simple one-to-one binding. As to “Yervoy® (Bristol-Myers Squibb Co, Cat# NDC: 0003-2327-11) (antibody)”, the figures for the Kd in test [1] and in test [2] were 2.97 nM and 2.2 nM, respectively.
